From patent US20220194997A1, “SUMO PEPTIDES FOR TREATING NEURODEGENERATIVE DISEASES” (The Chinese University of Hong Kong, priority 2019, published 2022)

Molecular target: SUMO1(15-55) (human)
Experiment: MST (FIG. 11b)

SUMO1(15-55) (human), sequence (peptide, as listed by the source limits assumed): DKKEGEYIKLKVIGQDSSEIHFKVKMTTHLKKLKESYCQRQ

binding ability relative to the sole β1, β2-strand peptides (fold of the sole β1, β2-strand peptides): 0.037
Substance: αsyn(33-58) (peptide)
